According to patent US6905817B1, “Ret-independent signaling pathway for GDNF” (Licestia Ltd., priority 1998, dated 2005):

Experiments:
CREB = CREB Ser-133 phosphorylation assay in Ret^−/− DRG neurons; format: cell-based, mouse; conditions: after GDNF treatment
Protocol: To assess GDNF-dependent MAPK and CREB phosphorylation in all studied cell lines, the semiconfluent cell monolayers were starved for 3 hours in serum-free medium, and then GDNF was applied for the indicated time. For the analysis of MAPK and CREB activation in Ret^−/− animals the DRG neurons were dissected from E18 mice and maintained in NGF-containing medium for 2 hours. After this time the neurons were deprived of NGF by placing them in NGF-free medium in the presence of anti-NGF antibodies. After 2 hr without NGF, the neurons were stimulated with GDNF. In the experiments involving Src-kinase inhibition, a Src-family kinase inhibitor PP2 was added at the indicated concentrations to the cell monolayers 5 min before GDNF application. In some experiments 1 μg/ml of soluble GFRα1 lacking a GPI anchor (GFRα1/Fc chimeric protein; R&D systems) was added 5 min prior to the GDNF application and was kept in the solution during the GDNF treatment, After stimulation, the cells were briefly washed with PBS/sodium vanadate and lysed in the buffer containing TBS, 2 mM EDTA, 1% NP-40, 1% Triton X-100, 1 mM PMSF, 1 mM Na3VO4 and a Complete, protease inhibitors cocktail (Boehringer Mannheim). Total cell protein for each extract was measured by MicroBSA (Pierce) and an equivalent amount of protein was resolved electrophoretically on 10% polyacrylamide gels. […]

[1] = tested on: GFRα1-associated Src kinases; experiment: In vitro kinase assay on anti-GFRα1 immunoprecipitate from Ret^−/− DRG neurons; format: cell-based, mouse; conditions: GDNF 100 ng/ml, 5 min; Triton X-100 insoluble fraction
Protocol: DRG neurons (5×10^5), SHEP neuroblastoma cells (10^7), Neuro2A neuroblastoma cells stably transfected with GFRα1 (10^7) or NIH3T3 cells (NIH3T3/pBpGFRα1) stably transfected with GFRα1 (10^7) were incubated in serum-free culture medium without (control) or with GDNF (GDNF-treated) for 0.5-15 min at 37° C. The cells were washed twice with cold PBS/vanadate and lysed in TX-100 lysis buffer (50 mM Tris-HCl, pH 7.5, 150 mM NaCl, 5 mM EDTA, 1% Triton X-100, 1 mM sodium orthovanadate, 1 mM phenylmethylsulfonyl fluoride (PMSF) and protease inhibitors (Boehringer) on ice for 1 hour. The postnuclear lysates were pre-cleared by incubation with 50 μl of 50% Protein G-Sepharose for goat polyclonal antibodies or Protein A-Sepharose CL4B (Pharmacia) for rabbit polyclonal antibodies for 1 hour at +4° C. After removal of the beads, the supernatants were incubated with 0.4-0.5 μg of anti-GFRα1 or anti-Yes polyclonal antibodies (Santa Cruz Biotechnology) overnight at +4° C. followed by incubation with Protein G or A-Sepharose for 2 hours. The immunocomplexes were washed twice in TX-100 lysis buffer without EDTA and twice in kinase buffer (25 mM Hepes, pH 7.4, 5 mM MgCl2, 5 mM MnCl2, 1 mM sodium orthovanadate). […] Quantification of the optical density of the blots was performed using the TINA program.

B1: Glial cell line—derived neurotrophic factor (protein, UniProt P39905 78-211, looked up)
Glial cell line-derived …: SPDKQMAVLPRRERNRQAAAANPENSRGKGRRGQRGKNRGCVLTAIHLNVTDLGLGYETKEELIFRYCSGSCDAAETTYDKILKNLSRNRRLVSDKVGQACCRPIAFDDDLSFLDDNLVYHILRKHSAKRCGCI
notes: TGF-β family-related neurotrophic protein; from PeproTech and donated by Cephalon, Inc
CREB phosphorylation in Ser-133 (CREB): increased substantially already at 5 min | phosphoprotein in in vitro kinase assay of anti-GFRα1 precipitate [1]: revealed a major phosphoprotein of approximately 60 kD
